Reference: US6111073A, “Tyrosine phosphorylated cleavage furrow-associated proteins (PSTPIPs)” (Genentech, Inc., priority 1998, dated 2000)

Key:
[1] = tested on: tyrosine phosphorylation of endogenous PSTPIP in Baf3 cells; assay: Tyrosine phosphorylation of endogenous PSTPIP in Baf3 cells (immunoprecipitation, anti-phosphotyrosine blot); type: cell-based, murine
Description: Baf3 cells were Iysed in 1% Triton, 50 mM HEPES, 10% glycerol and 5 mM EDTA containing 1 μg/ml aprotinin, PMSF, leupeptin and pepstatin with 1 mM Sodium Vanadate and 10 mM lodoacetic acid. Cells were treated with 0.1 mM Pervanadate for 4 hours before Iysis. Immunoprecipitations were performed in the vanadate-containing Iysis buffer using 1 μg/ml anti-PSTPIP polyclonal antibody and 400 μg of Iysate protein at 4° C. overnight. Western blots were performed using 1 μg/ml affinity purified anti-PSTPIP or 1:5000 dilution of commercial 4G10 anti-phosphotyrosine monoclonal (Upstate Biotech). Signal was detected by HRPO-ECL reagents (Pierce). The C221 -S mutant was as previously described (Cheng et al., (1996) supra). The PTP HSCF D197 -A mutant was generated using PCR. Mutagenesis primer D197A.F ([…]) (SEQ ID NO:24), corresponding to nucleotide 591, and primer D197A.R ([…]) (SEQ ID NO:25) which corresponds to the stop codon, were used in PCR to generate a fragment that could be cut with Mscl and Xbal. pRK.HA.38 WT, a plasmid which encoded the wild type enzyme under the control of the cytomegalovirus promoter (Cheng et al., (1996) supra), was digested with Clal and Mscl and the resulting 600 bp fragment was ligated with the Mscl-Xbal PCR fragment into the Clal and Xbal sites of pRK.tkneo. […]

[2] = biological target: in vitro transcribed and translated PSTPIP (murine); assay: peptide competition of the pull-down of in vitro translated PSTPIP by GST-PST-rich+CTH PTP HSCF
[3] = biological target: T1, interaction between PTP HSCF and PSTPIP (Mus musculus, UniProt P97814); assay: Peptide inhibition of in vitro binding: GST-PST-rich+CTH PTP HSCF precipitating in vitro translated PSTPIP; parameters: species or system murine; conditions: FIG. 4D
T1 construct: The longest two hybrid clone was used to isolate a full length cDNA from the original Baf3 two hybrid library; made in house; host or cells: PSTPIP: in vitro transcribed/translated (Promega TnT rabbit reticulocyte system); GST-PTP HSCF fusion: E. coli DH5-alpha, pGEX-4T-2
T1 sequence (P97814 1-415): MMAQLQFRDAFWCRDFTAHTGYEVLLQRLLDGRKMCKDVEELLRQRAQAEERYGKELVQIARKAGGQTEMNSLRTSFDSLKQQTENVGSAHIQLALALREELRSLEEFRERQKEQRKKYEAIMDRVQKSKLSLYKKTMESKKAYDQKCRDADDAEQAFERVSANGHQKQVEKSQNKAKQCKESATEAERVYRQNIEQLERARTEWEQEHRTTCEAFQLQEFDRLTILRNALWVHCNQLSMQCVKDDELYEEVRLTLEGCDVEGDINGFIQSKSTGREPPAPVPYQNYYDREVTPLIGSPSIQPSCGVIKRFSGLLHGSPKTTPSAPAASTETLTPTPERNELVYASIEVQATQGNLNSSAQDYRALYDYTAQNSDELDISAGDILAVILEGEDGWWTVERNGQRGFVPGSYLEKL
Description: The binding was carried out according to the method of Wong and Johnson (Wong et al., J. Biol. Chem. 271(35):20981-20984 (1996)). Briefly, 1 μg of plasmid with either the PSTPIP protein or PTP HSCF under the control of the Sp6 promoter was in vitro transcribed/translated using the Promega TnT Rabbit Reticulocyte system. Samples were diluted in 50 mM HEPES, pH 7.2, 1% triton X 100, 10% glycerol, 100 mM NaCI, 5 mM EDTA and 2 μg/ml each of leupeptin, pepstatin, aprotinin, and PMSF. […] This was reacted for 1 hour at 4° C. and then the resin washed 6 times in HEPES/Triton binding buffer before SDS gel electrophoresis. The peptides were synthesized on an automated Milligen 9050 Peptide Synthesizer using standard solid phase chemistry with FMOC protected amino acids on a p-alkoxybenzyl alcohol resin. Dried peptides were re-suspended in the HEPES/Triton Binding buffer at a concentration of 10 mg/ml. Peptide inhibition was performed by adding the peptide first to the in vitro translation product and then the GST-fusion followed by the GSH-Sepharose. The binding/washing steps were as previously described. The peptides synthesized and the PTPs they were derived from were: […]

[4] = tested on: PTP HSCF; assay: In vitro binding assay: GST fusion precipitation of in vitro translated PTP HSCF; conditions: GST fusion protein ~1 microgram per ml or ~1.5 micromolar; compared with polyclonal anti-PTP HSCF antibody; FIG. 3
Description: The binding was carried out according to the method of Wong and Johnson (Wong et al., J. Biol. Chem. 271(35):20981-20984 (1996)). Briefly, 1 μg of plasmid with either the PSTPIP protein or PTP HSCF under the control of the Sp6 promoter was in vitro transcribed/translated using the Promega TnT Rabbit Reticulocyte system. Samples were diluted in 50 mM HEPES, pH 7.2, 1% triton X 100, 10% glycerol, 100 mM NaCI, 5 mM EDTA and 2 μg/ml each of leupeptin, pepstatin, aprotinin, and PMSF. […] This was reacted for 1 hour at 4° C. and then the resin washed 6 times in HEPES/Triton binding buffer before SDS gel electrophoresis. The peptides were synthesized on an automated Milligen 9050 Peptide Synthesizer using standard solid phase chemistry with FMOC protected amino acids on a p-alkoxybenzyl alcohol resin. Dried peptides were re-suspended in the HEPES/Triton Binding buffer at a concentration of 10 mg/ml. Peptide inhibition was performed by adding the peptide first to the in vitro translation product and then the GST-fusion followed by the GSH-Sepharose. The binding/washing steps were as previously described. The peptides synthesized and the PTPs they were derived from were:
In order to characterize the regions involved with the binding between PTP HSCF and PSTPIP, a rapid and direct in vitro binding assay was performed. […]

[5] = biological target: T2, in vitro transcribed and translated PSTPIP (murine); assay: peptide competition of the pull-down of in vitro translated PSTPIP by GST-PST-rich+CTH PTP HSCF
T2 chain: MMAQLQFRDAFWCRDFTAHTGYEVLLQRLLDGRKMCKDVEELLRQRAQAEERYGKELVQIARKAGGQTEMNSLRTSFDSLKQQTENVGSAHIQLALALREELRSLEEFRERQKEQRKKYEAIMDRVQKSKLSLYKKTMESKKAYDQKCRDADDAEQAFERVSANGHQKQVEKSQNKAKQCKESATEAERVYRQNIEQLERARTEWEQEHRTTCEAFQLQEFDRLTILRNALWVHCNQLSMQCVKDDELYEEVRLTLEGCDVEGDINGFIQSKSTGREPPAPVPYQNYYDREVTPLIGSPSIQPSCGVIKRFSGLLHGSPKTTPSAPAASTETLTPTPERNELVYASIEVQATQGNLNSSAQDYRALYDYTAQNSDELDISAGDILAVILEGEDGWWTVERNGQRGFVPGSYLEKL

## pervanadate
[1]; anti-phosphotyrosine blot, FIG. 6A
  phosphotyrosine content of PSTPIP in the absence versus presence of the inhibitor: lower phosphotyrosine content

## [O]=[V]([O-])([O-])[O-] [vanadate]
[1]; with tyrosine phosphatase inhibitor, FIG. 6
  tyrosine phosphorylation of endogenous PSTPIP: significantly enhanced

## PXXP-PEP peptide (PTP PEP 782-800)
[2]
  concentration at which the peptide blocks the interaction (as low as): 800 nM

## GGVLRSISVPAPPTLPMADT [control peptide]
[3]
  ability to block the PTP HSCF-PSTPIP interaction: completely unable to block the interaction

## PXXP-PEST peptide (PTP PEST 761-780)
[2]
  concentration at which the peptide blocks the interaction (as low as): 800 nM

## PXXP-HSCF peptide (PTP HSCF 432-451)
[2]
  concentration at which the peptide blocks the interaction (as low as): 800 nM

B1: GST PSTPIP: GST fusion protein containing full-length PSTPIP (amino acids 2-415) (protein)
chain: MAQLQFRDAFWCRDFTAHTGYEVLLQRLLDGRKMCKDVEELLRQRAQAEERYGKELVQIARKAGGQTEMNSLRTSFDSLKQQTENVGSAHIQLALALREELRSLEEFRERQKEQRKKYEAIMDRVQKSKLSLYKKTMESKKAYDQKCRDADDAEQAFERVSANGHQKQVEKSQNKAKQCKESATEAERVYRQNIEQLERARTEWEQEHRTTCEAFQLQEFDRLTILRNALWVHCNQLSMQCVKDDELYEEVRLTLEGCDVEGDINGFIQSKSTGREPPAPVPYQNYYDREVTPLIGSPSIQPSCGVIKRFSGLLHGSPKTTPSAPAASTETLTPTPERNELVYASIEVQATQGNLNSSAQDYRALYDYTAQNSDELDISAGDILAVILEGEDGWWTVERNGQRGFVPGSYLEKL
[4]
  efficiency of precipitating in vitro translated PTP HSCF: more efficient at precipitating the phosphatase

## GGVLRSISVPAPPTLPMADT [PXXP-CONTROL peptide (PTP HSCF 334-353)]
[5]
  binding result: no binding
